Reference: the supplement of paper PMC10567573

B1: SPACA3 (parent)
chain: FTSGFNAAALDYEADGSTNNGIFQ

Variants of: B1
Assay: protein stability index of a GFP-peptide fusion (GPS, HEK-293T) (PSI 1-6); higher = more stable
Details: c terminus: a fixed tail appended
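Note: lentivirally expressed fusions sorted by FACS into six bins by GFP to DsRed ratio, PSI derived from sequencing read proportions per bin multiplied by bin number.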

Protein stability index of substitutions, site by site:
T18: A 1.87; H 1.83; Q 1.82; K 2.78; G 2.31; W 1.59; V 1.5; R 2.02; Y 2.02; E 2.27; C 2; N 1.7; P 1.83; I 2.14; M 1.95; D 2.06; F 1.78; L 2.07; S 2.08
G16: R 1.87; F 1.96; H 2.19; M 2; S 1.83; L 1.72; K 2.26; Q 1.9; P 1.97; N 2.33; D 2.31; E 2.31; W 1.15; V 1.78; Y 1.66; I 1.92; T 2.26
F23: T 2.92; V 2.11; A 2.1; I 2; L 2.08; M 2.55; G 2.54; N 2.4; H 2.42; R 2.16; W 1.64; P 2.42; E 2.28; D 2.5; Y 1.98; C 1.9; Q 2.36; K 2.48; S 2.2
Q24: M 1.46; E 2.33; P 1.99; H 2.46; S 1.85; R 2.2; N 1.67; V 1.17; T 2.23; I 2.18; C 1.93; G 2.36; L 1.71; Y 1.74; A 1.47; K 1.87; D 2.02; F 1.92
G21: W 1.58; K 2.33; F 1.8; H 1.98; C 1.97; L 2.06; Y 1.75; A 1.91; Q 1.7; V 1.98; P 2.12; S 1.72; I 1.51; M 1.51; D 1.9; T 2.02; N 1.84; E 2.28; R 1.75
N19: F 2.24; V 1.76; W 1.55; A 1.67; G 2.03; D 2.38; I 1.79; S 2.38; M 2.21; T 1.84; R 1.66; L 1.78; Q 2.44; K 1.63; E 2.23; C 2.31; P 2.21; H 2.52; Y 1.83
N20: G 1.96; Y 2.19; P 2.28; E 2.21; H 1.75; R 1.66; F 2.03; T 1.93; V 2; A 2.31; K 1.98; C 2.33; M 1.87; S 2.15; W 1.43; I 1.9; D 2.51; Q 1.84; L 2.04
I22: E 2.4; Y 2.06; W 2.15; P 1.94; D 2.41; Q 2.13; F 1.69; G 2.25; A 2.36; T 2.06; V 1.69; H 1.95; L 1.74; R 2.09; C 1.74; M 2.5; N 2.13; K 1.93; S 1.86
S17: W 2.1; L 1.71; Y 1.93; C 1.94; R 1.95; I 1.96; D 2.21; P 2.05; V 2.06; T 2.19; E 2.13; A 2.1; K 1.87; G 2.05; Q 2.35; N 2.21; M 1.48; F 1.74
